Target: PKCβII (mouse brain homogenates), P68404
Sequence (P68404 other isoform, or with tags, fused parts or gaps): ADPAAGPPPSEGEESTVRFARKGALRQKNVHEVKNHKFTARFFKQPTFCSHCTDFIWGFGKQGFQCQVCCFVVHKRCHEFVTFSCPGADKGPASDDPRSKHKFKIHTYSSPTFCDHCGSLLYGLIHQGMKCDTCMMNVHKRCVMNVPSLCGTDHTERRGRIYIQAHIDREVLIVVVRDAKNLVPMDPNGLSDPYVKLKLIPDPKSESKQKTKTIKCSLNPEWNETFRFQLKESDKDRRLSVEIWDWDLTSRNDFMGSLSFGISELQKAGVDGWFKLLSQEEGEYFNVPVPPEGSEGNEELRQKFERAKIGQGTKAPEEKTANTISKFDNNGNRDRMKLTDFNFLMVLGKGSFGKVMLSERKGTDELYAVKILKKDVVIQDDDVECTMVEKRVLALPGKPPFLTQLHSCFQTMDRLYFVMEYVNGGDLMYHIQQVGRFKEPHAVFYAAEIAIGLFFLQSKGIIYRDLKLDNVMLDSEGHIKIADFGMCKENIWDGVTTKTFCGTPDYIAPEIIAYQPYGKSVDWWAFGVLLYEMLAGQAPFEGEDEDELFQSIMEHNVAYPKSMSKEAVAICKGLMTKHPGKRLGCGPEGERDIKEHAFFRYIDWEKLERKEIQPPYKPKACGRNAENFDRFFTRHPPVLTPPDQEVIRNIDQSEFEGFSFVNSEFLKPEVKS

B1: AChE-R overexpressed in AChE-R transgenic mice (protein)
chain: EGREDAELLVTVRGGRLRGIRLKTPGGPVSAFLGIPFAEPPMGPRRFLPPEPKQPWSGVVDATTFQSVCYQYVDTLYPGFEGTEMWNPNRELSEDCLYLNVWTPYPRPTSPTPVLVWIYGGGFYSGASSLDVYDGRFLVQAERTVLVSMNYRVGAFGFLALPGSREAPGNVGLLDQRLALQWVQENVAAFGGDPTSVTLFGESAGAASVGMHLLSPPSRGLFHRAVLQSGAPNGPWATVGMGEARRRATQLAHLVGCPPGGTGGNDTELVACLRTRPAQVLVNHEWHVLPQESVFRFSFVPVVDGDFLSDTPEALINAGDFHGLQVLVGVVKDEGSYFLVYGAPGFSKDNESLISRAEFLAGVRVGVPQVSDLAAEAVVLHYTDWLHPEDPARLREALSDVVGDHNVVCPVAQLAGRLAAQGARVYAYVFEHRASTLSWPLWMGVPHGYEIEFIFGIPLDPSRNYTAEEKIFAQRLMRYWANFARTGDPNEPRDPKAPQWPPYTAGAQQYVSLDLRPLEVRRGLRAQACAFWNRFLPKLLSATGMQGPAGSAGRRGVGARQCNPSLLPLASE
PKC activity in brain homogenates (PKC assay kit, Upstate Biotechnology): Note the elevation of PKC activity in the different brain regions in the AChE-R transgenics as compered to FVB/N controls

— patent US20040058357
